The data set in a line: yeast display, Sf9 membrane polyspecificity reagent, FACS + sequencing; frameworks hold sequencing errors. In short, it runs like this:
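A nanobody's polyreactivity label depends on the gate it was sorted from. Yeast display cells were stained with 10% biotinylated, detergent-solubilized Sf9 membrane reagent for 1 hour at 4 °C, enriched on streptavidin microbeads and sorted by FACS. The low and high (top ~1%) gates were set on anti-HA fluorescence for expression and streptavidin fluorescence for reagent binding.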
In the case of “QDQHVESGGGLVQAGGSLRLSCAASGSTFGDNAMGWYRQAPGKERELVAAISRGGRTYYADSVKGRFTISRDNAKNTVYLQMNSLKPEDTAVYYCAATSAYRGYWVLRGLSYDYWGQGTQVTVSS”, the “polyreactivity (PSR sort gate)” value is “high polyreactivity”.
For “QDQHVESGGGLVQAGGSLRLSCAASGTIFSYYAMGWYRQAPGKERELVASISWKGTSTYYADSVKGRFTISRDNSKNTVYLQMNSLKPEDTAVYYCNVRFNYRGTYDYWGQGTQVTVSS” the value was “low polyreactivity”; for “QDQHVESGGGLVQAGGSLRLSCDASGFIFNQNARGWYRQAPGKERELVAAISQRGGRTYYADSVKGRFTISRDNAKNTVYLQMNSLKPEDTAVYYCAAYGPFRFDVDTYDYWGQGTQVTVSS”, “low polyreactivity”; for “QDQHVESVGGLVQAGGSLLLSCAASGFTLRGYALGWDRQAPGKERELVADISGGGSTDYADSVKGRFTISRDNAKNTVYLQMNSLKPLDTAVYYCAAYGYLWWEMDYWGQGTQVTLSS”, “high polyreactivity”.
On to “QDQIVDSGGGLVQAGVSLRLSCAASGFTFGINTLGWYRQAPGKERELVAGISRTSSTYADSVKGRFTISRDNAKNTVYLQMNSLNAEDTAVYYCAAEYFQTRFGSWRKRYVSWGQGTQVTVSS”, for which the “polyreactivity (PSR sort gate)” value is “high polyreactivity”.
Take “QDQIVESGGGLVQAGGSLRLSCAASGRTFGVNTMGWSRQAPGKVREMVASISTSGGSTYADSVKGRFTISRDNPKNTVYLQMNSLKPEDSAVYYCAKDTDAVYDEFDSWGQGTQVTVSS”: the “polyreactivity (PSR sort gate)” value is given as “low polyreactivity”.
On to “QDQLEESGGGLVQAGGSLRLSCGASGSIYDTNDMGWYRQAPGKERELVSAISSGGNTNYADSVKGRFTISRDNAKNTVYLQMKSVKPEDTAVYYWAAVWLGVYSVWTYHHYDYWGQGTQVTVSS”, for which the “polyreactivity (PSR sort gate)” value was “low polyreactivity”.
In the case of “QDQLEESGGGLVQEGGSLRLSCAATGFTLAFNAMGWYRQAPGKERELVASITSSSGSTYYADSVKGRFTISRDNAKITVFLQMNSLKPEDTAVYYCARDLAIPQVLSQPIFGYWGQGTQVTVSS”, the “polyreactivity (PSR sort gate)” value was “low polyreactivity”.
As for “QDQLGESGGGLLQAGGSLRLSCAASGRTFRYYAMGSYRQEPGKERELVAAISISGGNTYYADSVKGRFTISRDHAKNTVYLQMNSLKPEDTAVYYCAASFSSRFYRARVDYWGQGTQVTVSS”, the “polyreactivity (PSR sort gate)” value is reported as “high polyreactivity”.
Turning to “QDQLGESGGGLVQAGGSLRLICAASGRIFPYYAMAWYRQAAGKEREFVASITKRRGSTSYADSVKGRFTISRDNAKNTVYLQMHSLKPEDTAVYYCAARRGSGMVTYYGGDYWGQGTQVTVSS”, the “polyreactivity (PSR sort gate)” value is “low polyreactivity”.
For the sequence “QDQLGESGGGLVQAGGSLRLSCPASGFTVSNNVMGWSRQAPGKERELVADITWSGDGTYYADSVKGRFTISRDNAKKSVYLQMNSLKTEDTAVYYCNARYGKEYDYWGQGTQVTVSS”, the “polyreactivity (PSR sort gate)” value is reported as “low polyreactivity”.
On to “QDQLLESGGGLVQAGGSLLLSCAASGSTFFDYAMGWYRQAPGKERELVAVISDGGTTTYADSVKGRFTISRDNAKNTVYLQMNSLKPEDTAVYYCAAENQDGLLVILGGYGYWGQGTQVTVSS”, for which the “polyreactivity (PSR sort gate)” value was “low polyreactivity”.
For the sequence “QDQLLETGGGLVQAGGSLRLSCAASGSTSLVYAMGWYRQAPGKERELVADISWSGGSTYYTDSVKGRFTISRDNAKNTVYLQMNSLKPEDTAVYYCNGGTYSTSVPYPYKYWGQGTQVTVSS”, the “polyreactivity (PSR sort gate)” value is recorded as “high polyreactivity”.
As for “QDQLVDSGGGIVQAGGILSLSCAASGRNIIYNAMGWYRQAPGKERELVAAINRSGVSTHYADSVKGRFTISRDNAKNTVYLQMTSLKPEDTAVYYCASTVYGARSYDYWGQGTQVTLSS”, the “polyreactivity (PSR sort gate)” value is recorded as “low polyreactivity”.
Under “QDQLVDSGGGLLQAGGSLRLSCAASGSTFHPYAMGWYRQAPGKERELVAAITFSGGSTYADSVKGRFTISRDNAKNTVYIQMNSLKPEDTAVYYCAAEWWYWRGWRDYWGQGTQVTVSS” stands “low polyreactivity”; under “QDQLVDSGGGLLQAGGSLRLSCAASGSTLSKYAMGWNRQAPGKERELVAAISQRGGSTYYADSVKGRFTISRDNAKYTVYLQMNSLKPEDTAVSYCNALQRRYGYWGQGTQVTESS”, “high polyreactivity”; under “QDQLVDSGGGLVKAGGNLRLSCPASGSTFDYNTMGWNIQEPGKESEMVAVITASGGSTYYADSVKGRFTISRDNAKNTVYLQMNSLKPEDTAVYYCAKDLYVSYYIGTCYYYWGQGTQVTVSS”, “low polyreactivity”.
For the sequence “QDQLVDSGGGLVQAGGSLRLSCAASGFNFGYYAMGWYRQAPRKERELVAAISRSGGRTYYADSVKGRFTISRDNAKNTVYLQMNILNPEDTAVYYCNARHYLSAYDYWGQGTQVTVSS”, the “polyreactivity (PSR sort gate)” value was “high polyreactivity”.
Take “QDQLVDSGGGLVQAGGSLRLSCAASGRTFTVYAMGWYRQAPGKERELVAAISGSSGSTDYADSVKGRFTISRDNAKNTVYLQMNSLKPEDTAVYYCAKASSATRYVQLRQDYDYWGQGTQVTVSS”: the “polyreactivity (PSR sort gate)” value is on record as “low polyreactivity”.
“QDQLVESAGGLLQAGGSLRLSCAASGSTFKYNAMGWYRQAPGKERELVDSITRGGNTNYADSVKGRFTISRDNAKNTVYLLMNSLKTEDTAFYYCAAQLMRDLRSPYSYNYWGQGTQVTVSS”: the “polyreactivity (PSR sort gate)” value was “low polyreactivity”.
Turning to “QDQLVESAGGLVQAGGSLRLICAASGSTFALYAMGWYRQAAGTERELVAAISRSGGRTYYADSVKGRFTISRDNPKNTVYLQMNSLKPDDTAVYYCAADFSRPGGLDESWGQGTQVTVSS”, the “polyreactivity (PSR sort gate)” value is “high polyreactivity”.
For “QDQLVESAGGLVQAGGSLRLSCAASGRIFVFNAMGWYIQAPGKERELVAGINRGASTYYADSVKGRFTISRDNAKNTVYFQMNSLKPEDTAVYYCAADNFWWTKLYYWGQGTQVTVSS”, the “polyreactivity (PSR sort gate)” value is reported as “high polyreactivity”.
On to “QDQLVESAGGLVQAGGSLRLSCAASVITFVRYVMGWYRQAPGKEREFVARIRWRGGSTNYADSVKGRFTISRDNAKNTVYLQMNSLKPEDTAVYYCNAVRRASSGYDYWGQGTQVTVSS”, for which the “polyreactivity (PSR sort gate)” value is listed as “high polyreactivity”.
Turning to “QDQLVESCGGLVQAGGSHRLTCAASGGTSWIYAMGWYRQAPRKARELVAVITWSGGSTYYADSVKGRFTISRDTAKNTVYLQMNSLKPEDTAVYYCATDYTGKWKDHYYYWGQGTQVTVSS”, the “polyreactivity (PSR sort gate)” value was “low polyreactivity”.
As for “QDQLVESCGGLVQAGGSLRLSCAASGRTFYRYAMGWYIQAPGKERELVADITRRVGITHYADSVKGRFTISRDYAKNTVYLKMNSLKPEDTAVYYCAARKYGSRYRLKYDYWGQGTQVTVSS”, the “polyreactivity (PSR sort gate)” value is on record as “high polyreactivity”.
For the sequence “QDQLVESGAGLVQAGGSLRLSCAASGFNFYRYAMGWYREAPGKERELVATISVRGGTYYADSVKGRFTISRDNAKNTVYLQMNSLKPEDTAVYYCAARVHLWGDTLKFVRVGYWGQGTQVTVSS”, the “polyreactivity (PSR sort gate)” value was “low polyreactivity”.
In the case of “QDQLVESGGCLVQAGGSLRLSCAASGRIIIGYVMGWYRQAPVKERELVATISYSGGSTYADSVKGRFTISRDNAKNTVYLLMNSLKPEDTAVYYCNALFAGHKYYTVTSKYDYWGQGTQVTLSS”, the “polyreactivity (PSR sort gate)” value is reported as “high polyreactivity”.
As to “QDQLVESGGGFVQAGGSLRLSCAASGITFPLYALGRYRQPPGKERELVAAISRNGGRTYYADSVKVRFTMSRDNAKNTVYLQMNSMKPEDTAVYYCAKVSRGSVSSPPDDYWGQGTQVTVSS”, the “polyreactivity (PSR sort gate)” value was “high polyreactivity”.
With “QDQLVESGGGFVQAGGSLRLSCAASGLTFWYYAMGWYRQATGKEVELVAANDWSGASTYYADSVKGRFTISRDNAKNTVYLQMISLQPEDTAVYYCNTVYYIGDDYWGQGTQVTVSS”, the “polyreactivity (PSR sort gate)” value was “high polyreactivity”.
As to “QDQLVESGGGFVQARGSLRLSCAACGFIFYANAMGWYRQAPGKERELVAGISWSGTSTYYADSVKGRFTISRDNAKNTVYLQMNSLKPEDTAVYYCNRVFYHFDVDRYDYWGQGTQVTVSS”, the “polyreactivity (PSR sort gate)” value was “low polyreactivity”.
In the case of “QDQLVESGGGIVQAGGILRLSCASSGFIFRGYAMGWYRQAPGKEWELVAAINSGDSTNYADSVKGRFTISRDNAKNTVSLQMNSLKREDTAVYYCAASIYAALNGGEGYDYWGQGTQVTVSS”, the “polyreactivity (PSR sort gate)” value is given as “low polyreactivity”.
Under “QDQLVESGGGIVQAGGRLRLSCAASGSIFRYYAMGWYRQAPGKERDLVAAINWDGGSTYYADSVKGRFTISRDNAKNTVYLQMNSLKPEDTAVYYCATTSRVYAYGYRTSNYWGQGTQVTVSS” stands “high polyreactivity”; under “QDQLVESGGGIVQAGGSLRLSCAASGRNFILNAMGLYRQAPGKERELVAAITWSGGGTYYADSVKGRFTISRDNAKNTVYLQMNSLKASDSAVYYCNRPAAVGEEDYWGQGTQVTVSS”, “low polyreactivity”; under “QDQLVESGGGIVQAGGSLRLSCAASGSTFPIYAMGWYRQAPGKERELVADITSTGSTDYADSVKGRFTISRDNAKNTVYLQMNSLKPEDTAVYYCAADYYYSAYFWSDFDYWGQGTQVTVSS”, “high polyreactivity”.
Consider “QDQLVESGGGIVQAGGTLRLSCAASGRTIGGYDMGWDRQAPGKERQLVAAIRTGGRTNYADSVKGRFTISRDNAKNTVYLQLNSLKPEDTAVYYCNARRRIADPRAGIYDYCGQGTQVTVSS”, for which the “polyreactivity (PSR sort gate)” value is given as “high polyreactivity”.
For “QDQLVESGGGLDQAGGSLRLSCAASGNTFWPYAMGWYRQAPGKESEFVAAITFRGGSTYYADSVKGRFTISRDNAKNTVYLQMNSLKPEDTAVYYCNAERGVWSGYFGYDYWGQGTQVTVSS”, the “polyreactivity (PSR sort gate)” value is reported as “low polyreactivity”.
With “QDQLVESGGGLDQAGGSLRLSCAASGRIFKLYAMGWYRQAPGKERELVAAISKSGGNTYADSVKGRFTISRDNAKNTVYLQMNSLKPEETAVYYCAATVQSTSDPFDYWGQGTQVTVSS”, the “polyreactivity (PSR sort gate)” value is “low polyreactivity”.
Take “QDQLVESGGGLFKAGGSLRLSCAASGFIFSHYAMGWYRQAPGKERELVADISRSGTSTYYADSVTGRFTISRDNAKNTVYLQMNSLKPEDTAVYYFAKEYFFRGFNYRYDYWGQVTQVTVSS”: the “polyreactivity (PSR sort gate)” value is listed as “high polyreactivity”.
Under “QDQLVESGGGLVHAGGSLRISCAASGRILYAYPMGWYRQAPGKERELVAAINWSGGSTYYADSVKGRFTISRDNAKNTVYLQMNSLKPEDTAVYYCNRVLDPTNKYYYWGQGTQVTVSS” stands “high polyreactivity”; under “QDQLVESGGGLVPAVGSLRLTCAASGYTFWDYTMGLYRQAPGKERELGAAMSSSGSSTYYADSVKGRFTISRDNAKNTVYLQMNSLKPEDNAVYYCAAYSRRQWKYDYWGQGTHVTVSS”, “high polyreactivity”.
